Columns and labels:
[1] = Screening of lysates for retained lysine decarboxylase activity after heat treatment at 65° C.; type: biochemical, Escherichia coli; conditions: lysate incubated at 65° C. for 2 hours, then reacted at 37° C. for 40 minutes
Method: A colony of each transformant in which the mutated lysine decarboxylase had been introduced was picked up, inoculated to 1 mL of the LB medium containing 100 μg/mL of ampicillin, and cultured at 30° C. for 24 hours. 18 μL of 100 mM 2-(N-morpholino) ethanesulfonic acid (MES)-NaOH buffer (pH6.0) and 2.7 μL of FastBreak cell lysis reagent (Promega) were added to 10 μL of this cultured medium, which was then incubated at 37° C. for 30 minutes to lyse the microbial cells. Then, this lysate solution was heated up to 65° C. and incubated for 2 hours. After this heat treatment, 190 μL of a reaction solution (pH 5.5) containing 10 g/L of lysine hydrochloride, 21.3 g/L (100 mM) of MES, 26.5 mg/L of Pyridoxal-5′-phosphate (PLP) and 20 mg/L of Bromocresol purple was added and reacted at 37° C. for 40 minutes. […] More abundant formation of 1,5-PD and retention of activity as compared to bacteria expressing the wild-type enzyme after treating with heat under the above conditions were used as an indicator. Three candidate strains expressing CadA having improved thermal stability were obtained using this indicator. These transformants of E. coli JM109 strain were designated as CadA231, CadA232 and CadA233, respectively.

[2] = Enzyme activity of culture media of expressing strains after heat treatment with or without disruption; type: cell-based, Escherichia coli
Method: (§1) The activity of the lysine decarboxylase was measured according to the method described in JP patent application laid-open Publication No. 2008-193899. 0.1 mL of a microbial cell suspension or a treated product thereof was added to 1 mL of a reaction solution containing 100 mM MES-NaOH buffer (pH 6.0), 10 g/L (55 mM) of L-lysine hydrochloride and 26.5 mg/L (0.1 mM) of PLP, and then the reaction mixture was incubated at 37° C. for 5 minutes. 0.1 mL of the reaction solution was collected and added to 1 mL of 1% (v/v) phosphoric acid to stop the reaction. Lysine and 1,5-PD were quantified with HPLC by a post column OPA method (S. R. Vale and M. B. Gloria, Journal Of AOAC International (1997) vol. 80, p. 1006-1012) or a method of quantifying remaining L-lysine using a biosensor BF-5 (Oji Scientific Instruments Co., Ltd.). One unit was defined as an activity that formed 1 μmol of 1,5-PD in one minute under this condition.
Microbial cells of E. coli JM109/pCadA220 and E. coli JM109/pCadA234 carrying the wild-type CadA and the double mutant CadA, respectively were cultured in the LB medium. Subsequently, 15 mL of the cultured medium was inoculated into 300 mL of culture medium (25 g/L of glucose, 5 g/L of ammonium sulfate, 2 g/L of potassium phosphate, 1 g/L of magnesium sulfate heptahydrate, 20 mg/L of iron sulfate heptahydrate, 20 mg/L of manganese sulfate pentahydrate, 1 mg/L of thiamine hydrochloride, 0.45 g/L of hydrolyzed soybeans, pH 7.0) in a 500 mL jar fermenter (manufactured by ABLE & Biott Co., Ltd.), and cultured with ventilation at 300 mL/minute while stirring at 250 rpm at 30° C. for 12 hours. Culture media containing 10.1 g/L and 10.9 g/L of microbial cells in terms of dry microbial cell weight were able to be prepared for E. coli JM109/pCadA220 and E. coli JM109/pCadA234, respectively. For the purpose of improving substrate permeability, the pH value was adjusted to 5.5, and subsequently the culture media were incubated at 55° C. and 60° C., and then the culture media were directly used to measure the activity after the incubation.
Since the lysine decarboxylase is expressed within the microbial cell, when the microbial cell is used directly, lysine cannot react with the lysine decarboxylase, and the efficiency of a decarboxylation reaction is very poor. […] However, the wild-type enzyme was inactivated during the incubation when heated excessively. The mutated enzyme having the improved thermal stability could stably keep its activity even when using conditions where the wild-type enzyme was easily inactivated as shown in Example 2. When the microbial cells carrying such a mutated enzyme were used, efficient treatment in a short period of time was possible. This has shown that the mutated enzyme not only can act at higher temperature upon reaction but also can be easily used when the microbial cell is directly used.

[3] = Remaining lysine decarboxylase activity of cell free extract after incubation at 65° C.; type: biochemical, Escherichia coli
Method: as §1
Each transformant was inoculated to 50 mL of L medium in a 500 mL Sakaguchi flask containing 100 μg/mL of ampicillin and cultured with shaking at 30° C. for 16 hours. Microbial cells were collected from the cultured medium by centrifugation, washed once with saline, subsequently suspended in 5 mL of 100 mM potassium phosphate buffer (pH 7.0), and disrupted by sonication at 4° C. for 20 minutes. An insoluble fraction was removed by centrifuging the lysate solution at 8,000 rpm for 10 minutes to prepare a cell free extract.
The resulting cell free extract was diluted 20 fold with 100 mM MES-NaOH buffer (pH 6.0). This crude enzyme solution was incubated at 65° C., and its remaining activity after 3 and 5 hours was measured by the method described in Example 1. As a result, the activity in the crude enzyme solution from the strain expressing the mutated enzyme before incubation was almost the same as that from the strain expressing the wild-type enzyme (Table 3).

[4] = Incubation at 55° C. for 1 h, Disruption
[5] = Incubation at 55° C. for 1 h, physical treatment None
[6] = Incubation at 55° C. for 3 h, Disruption
[7] = Incubation at 55° C. for 3 h, physical treatment None
[8] = Incubation at 60° C. for 1 h, Disruption
[9] = Incubation at 60° C. for 1 h, physical treatment None
[10] = No heat treatment, physical treatment None
[11] = cell free extract diluted 20 fold, before heating

B1: pCadA220: wild-type lysine decarboxylase (CadA) derived from Escherichia coli W3110, expressed from plasmid pCadA220 (protein, UniProt P0A9H3 1-715, looked up)
Inducible lysine decarboxylase: MNVIAILNHMGVYFKEEPIRELHRALERLNFQIVYPNDRDDLLKLIENNARLCGVIFDWDKYNLELCEEISKMNENLPLYAFANTYSTLDVSLNDLRLQISFFEYALGAAEDIANKIKQTTDEYINTILPPLTKALFKYVREGKYTFCTPGHMGGTAFQKSPVGSLFYDFFGPNTMKSDISISVSELGSLLDHSGPHKEAEQYIARVFNADRSYMVTNGTSTANKIVGMYSAPAGSTILIDRNCHKSLTHLMMMSDVTPIYFRPTRNAYGILGGIPQSEFQHATIAKRVKETPNATWPVHAVITNSTYDGLLYNTDFIKKTLDVKSIHFDSAWVPYTNFSPIYEGKCGMSGGRVEGKVIYETQSTHKLLAAFSQASMIHVKGDVNEETFNEAYMMHTTTSPHYGIVASTETAAAMMKGNAGKRLINGSIERAIKFRKEIKRLRTESDGWFFDVWQPDHIDTTECWPLRSDSTWHGFKNIDNEHMYLDPIKVTLLTPGMEKDGTMSDFGIPASIVAKYLDEHGIVVEKTGPYNLLFLFSIGIDKTKALSLLRALTDFKRAFDLNLRVKNMLPSLYREDPEFYENMRIQELAQNIHKLIVHHNLPDLMYRAFEVLPTMVMTPYAAFQKELHGMTEEVYLDEMVGRINANMILPYPPGVPLVMPGEMITEESRPVLEFLQMLCEIGAHYPGFETDIHGAYRQADGRYTVKVLKEESKK
activity after heat treatment of lysate [1]: inactivated
Enzyme activity [2, 4]: 819 units/ml
Relative activity [2, 4]: 89.6%
Enzyme activity [2, 5]: 246 units/ml
Relative activity [2, 5]: 26.9%
Enzyme activity [2, 6]: 730 units/ml
Relative activity [2, 6]: 79.9%
Enzyme activity [2, 7]: 375 units/ml
Relative activity [2, 7]: 41.0%
Enzyme activity [2, 8]: 798 units/ml
Relative activity [2, 8]: 87.3%
Enzyme activity [2, 9]: 282 units/ml
Relative activity [2, 9]: 30.9%
Enzyme activity ([2]; No heat treatment, Disruption): 914 units/ml
Relative activity ([2]; No heat treatment, Disruption): 100%
Enzyme activity [2, 10]: 17.5 units/ml
Relative activity [2, 10]: 1.9%
Activity after incubation at 65° C. for 3 h ([3]; 65° C., 3 h): 413 Units/mL
Remaining activity after incubation at 65° C. for 3 h ([3]; 65° C., 3 h, relative to before heating): 59.2%
Activity after incubation at 65° C. for 5 h ([3]; 65° C., 5 h): 360 Units/mL
Remaining activity after incubation at 65° C. for 5 h ([3]; 65° C., 5 h, relative to before heating): 51.6%
Remaining activity after incubation at 65° C. for 5 h ([3]; 65° C., 5 h, relative to before heating, listed as wild-type enzyme): reduced by half
Activity before heating [3, 11]: 697 Units/mL
Activity before heating, remaining activity [3, 11]: 100%

Source: patent publication US10358638B2, “Method of producing 1,5-pentadiamine using lysine decarboxylase mutant having improved thermal stability” (AJINOMOTO CO., INC., priority 2014, dated 2019)
